{
  "source": "IntAct's records for PubMed 31515488",
  "parents": {"B1": {"name": "PiggyBac transposable element-derived protein 1 (Homo sapiens), Q96JS3 (parent)", "chain": "MYEALPGPAPENEDGLVKVKEEDPTWEQVCNSQEGSSHTQEICRLRFRHFCYQEAHGPQEALAQLRELCHQWLRPEMHTKEQIMELLVLEQFLTILPKELQPCVKTYPLESGEEAVTVLENLETGSGDTGQQASVYIQGQDMHPMVAEYQGVSLECQSLQLLPGITTLKCEPPQRPQGNPQEVSGPVPHGSAHLQEKNPRDKAVVPVFNPVRSQTLVKTEEETAQAVAAEKWSHLSLTRRNLCGNSAQETVMSLSPMTEEIVTKDRLFKAKQETSEEMEQSGEASGKPNRECAPQIPCSTPIATERTVAHLNTLKDRHPGDLWARMHISSLEYAAGDITRKGRKKDKARVSELLQGLSFSGDSDVEKDNEPEIQPAQKKLKVSCFPEKSWTKRDIKPNFPSWSALDSGLLNLKSEKLNPVELFELFFDDETFNLIVNETNNYASQKNVSLEVTVQEMRCVFGVLLLSGFMRHPRREMYWEVSDTDQNLVRDAIRRDRFELIFSNLHFADNGHLDQKDKFTKLRPLIKQMNKNFLLYAPLEEYYCFDKSMCECFDSDQFLNGKPIRIGYKIWCGTTTQGYLVWFEPYQEESTMKVDEDPDLGLGGNLVMNFADVLLERGQYPYHLCFDSFFTSVKLLSALKKKGVRATGTIRENRTEKCPLMNVEHMKKMKRGYFDFRIEENNEIILCRWYGDGIISLCSNAVGIEPVNEVSCCDADNEEIPQISQPSIVKVYDECKEGVAKMDQIISKYRVRIRSKKWYSILVSYMIDVAMNNAWQLHRACNPGASLDPLDFRRFVAHFYLEHNAHLSD"}, "B2": {"name": "Isoform Long of Autophagy protein 5 (Homo sapiens), Q9H1Y0-1 (parent)", "chain": "MTDDKDVLRDVWFGRIPTCFTLYQDEITEREAEPYYLLLPRVSYLTLVTDKVKKHFQKVMRQEDISEIWFEYEGTPLKWHYPIGLLFDLLASSSALPWNITVHFKSFPEKDLLHCPSKDAIEAHFMSCMKEADALKHKSQVINEMQKKDHKQLWMGLQNDRFDQFWAINRKLMEYPAEENGFRYIPFRIYQTTTERPFIQKLFRPVAADGQLHTLGDLLKEVCPSAIDPEDGEKKNQVMIHGIEPMLETPLQWLSEHLSYPDNFLHISIIPQPTD"}, "B3": {"name": "Scaffold protein ILK (Homo sapiens), Q13418 (parent)", "chain": "MDDIFTQCREGNAVAVRLWLDNTENDLNQGDDHGFSPLHWACREGRSAVVEMLIMRGARINVMNRGDDTPLHLAASHGHRDIVQKLLQYKADINAVNEHGNVPLHYACFWGQDQVAEDLVANGALVSICNKYGEMPVDKAKAPLRELLRERAEKMGQNLNRIPYKDTFWKGTTRTRPRNGTLNKHSGIDFKQLNFLTKLNENHSGELWKGRWQGNDIVVKVLKVRDWSTRKSRDFNEECPRLRIFSHPNVLPVLGACQSPPAPHPTLITHWMPYGSLYNVLHEGTNFVVDQSQAVKFALDMARGMAFLHTLEPLIPRHALNSRSVMIDEDMTARISMADVKFSFQCPGRMYAPAWVAPEALQKKPEDTNRRSADMWSFAVLLWELVTREVPFADLSNMEIGMKVALEGLRPTIPPGISPHVCKLMKICMNEDPAKRPKFDMIVPILEKMQDK", "partner": "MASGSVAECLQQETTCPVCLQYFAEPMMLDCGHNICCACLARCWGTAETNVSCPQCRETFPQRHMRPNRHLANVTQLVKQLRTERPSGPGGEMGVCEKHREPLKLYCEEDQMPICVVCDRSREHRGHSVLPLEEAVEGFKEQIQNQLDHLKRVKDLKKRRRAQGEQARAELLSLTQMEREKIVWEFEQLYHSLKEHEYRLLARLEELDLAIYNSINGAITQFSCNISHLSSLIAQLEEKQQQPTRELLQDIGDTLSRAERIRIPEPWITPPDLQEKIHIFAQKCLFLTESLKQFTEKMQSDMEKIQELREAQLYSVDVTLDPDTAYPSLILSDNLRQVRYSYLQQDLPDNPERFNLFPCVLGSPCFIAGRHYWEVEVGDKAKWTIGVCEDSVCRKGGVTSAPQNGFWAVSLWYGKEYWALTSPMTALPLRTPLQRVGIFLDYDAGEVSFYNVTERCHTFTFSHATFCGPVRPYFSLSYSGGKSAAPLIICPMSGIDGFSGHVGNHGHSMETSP"}, "B4": {"name": "Protein DDI1 homolog 1 (Homo sapiens), Q8WTU0 (parent)", "chain": "MLITVYCVRRDLSEVTFSLQVSPDFELRNFKVLCEAESRVPVEEIQIIHMERLLIEDHCSLGSYGLKDGDIVVLLQKDNVGPRAPGRAPNQPRVDFSGIAVPGTSSSRPQHPGQQQQRTPAAQRSQGLASGEKVAGLQGLGSPALIRSMLLSNPHDLSLLKERNPPLAEALLSGSLETFSQVLMEQQREKALREQERLRLYTADPLDREAQAKIEEEIRQQNIEENMNIAIEEAPESFGQVTMLYINCKVNGHPLKAFVDSGAQMTIMSQACAERCNIMRLVDRRWAGVAKGVGTQRIIGRVHLAQIQIEGDFLQCSFSILEDQPMDMLLGLDMLRRHQCSIDLKKNVLVIGTTGTQTYFLPEGELPLCSRMVSGQDESSDKEITHSVMDSGRKEH", "partner": "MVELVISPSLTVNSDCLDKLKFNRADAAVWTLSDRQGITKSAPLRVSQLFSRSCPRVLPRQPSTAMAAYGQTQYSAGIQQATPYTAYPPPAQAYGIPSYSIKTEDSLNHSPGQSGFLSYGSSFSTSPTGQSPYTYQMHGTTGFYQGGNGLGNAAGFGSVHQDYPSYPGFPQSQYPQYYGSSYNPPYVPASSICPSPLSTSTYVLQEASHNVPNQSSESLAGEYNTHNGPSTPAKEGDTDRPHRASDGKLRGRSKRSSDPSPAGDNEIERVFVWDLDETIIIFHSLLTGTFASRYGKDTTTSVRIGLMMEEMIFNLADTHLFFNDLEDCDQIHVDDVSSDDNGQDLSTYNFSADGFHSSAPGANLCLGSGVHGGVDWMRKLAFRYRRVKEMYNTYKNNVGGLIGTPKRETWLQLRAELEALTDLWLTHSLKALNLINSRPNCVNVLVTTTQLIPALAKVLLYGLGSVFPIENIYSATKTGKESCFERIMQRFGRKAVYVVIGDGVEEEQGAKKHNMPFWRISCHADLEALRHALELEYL"}, "B5": {"name": "Transcription factor 12 (Homo sapiens), Q99081-3 (parent)", "chain": "MNPQQQRMAAIGTDKELSDLLDFSAMFSPPVNSGKTRPTTLGSSQFSGSGIDERGGTTSWGTSGQPSPSYDSSRGFTDSPHYSDHLNDSRLGAHEGLSPTPFMNSNLMGKTSERGSFSLYSRDTGLPGCQSSLLRQDLGLGSPAQLSSSGKPGTAYYSFSATSSRRRPLHDSAALDPLQAKKVRKVPPGLPSSVYAPSPNSDDFNRESPSYPSPKPPTSMFASTFFMQDGTHNSSDLWSSSNGMSQPGFGGILGTSTSHMSQSSSYGNLHSHDRLSYPPHSVSPTDINTSLPPMSSFHRGSTSSSPYVAASHTPPINGSDSILGTRGNAAGSSQTGDALGKALASIYSPDHTSSSFPSNPSTPVGSPSPLTGTSQWPRPGGQAPSSPSYENSLHSLKNRVEQQLHEHLQDAMSFLKDVCEQSRMEDRLDRLDDAIHVLRNHAVGPSTSLPAGHSDIHSLLGPSHNAPIGSLNSNYGGSSLVASSRSASMVGTHREDSVSLNGNHSVLSSTVTTSSTDLNHKTQENYRGGLQSQSGTVVTTEIKTENKEKDENLHEPPSSDDMKSDDESSQKDIKVSSRGRTSSTNEDEDLNPEQKIEREKERRMANNARERLRVRDINEAFKELGRMCQLHLKSEKPQTKLLILHQAVAVILSLEQQVRERNLNPKAACLKRREEEKVSAVSAEPPTTLPGTHPGLSETTNPMGHM"}},
  "data": [
    {"variants_of": "B1", "conditions": "with traf2_human TRAF2, Q12933", "values": [
      {"variant": "I678V", "effect of a mutation on the interaction": "with no effect"},
      {"variant": "P256L", "effect of a mutation on the interaction": "with no effect"},
      {"variant": "Q248E", "effect of a mutation on the interaction": "disrupting interaction strength"},
      {"variant": "G244E", "effect of a mutation on the interaction": "disrupting interaction strength"}
    ]},
    {"variants_of": "B1", "conditions": "with zsc22_human ZSCAN22, P10073", "values": [
      {"variant": "I678V", "effect of a mutation on the interaction": "with no effect"},
      {"variant": "P256L", "effect of a mutation on the interaction": "disrupting interaction strength"},
      {"variant": "Q248E", "effect of a mutation on the interaction": "with no effect"},
      {"variant": "G244E", "effect of a mutation on the interaction": "with no effect"}
    ]},
    {"variants_of": "B1", "conditions": "with zn446_human ZNF446, Q9NWS9", "values": [
      {"variant": "I678V", "effect of a mutation on the interaction": "with no effect"},
      {"variant": "P256L", "effect of a mutation on the interaction": "disrupting interaction strength"},
      {"variant": "Q248E", "effect of a mutation on the interaction": "with no effect"},
      {"variant": "G244E", "effect of a mutation on the interaction": "with no effect"}
    ]},
    {"variants_of": "B1", "conditions": "with znf24_human ZNF24, P17028", "values": [
      {"variant": "I678V", "effect of a mutation on the interaction": "with no effect"},
      {"variant": "T25A", "effect of a mutation on the interaction": "with no effect"}
    ]},
    {"variants_of": "B2", "conditions": "with tera_human VCP", "values": [
      {"variant": "K58M", "effect of a mutation on the interaction": "disrupting interaction strength"}
    ]},
    {"variants_of": "B2", "conditions": "with keap1_human KEAP1, Q14145", "values": [
      {"variant": "K58M", "effect of a mutation on the interaction": "with no effect"}
    ]},
    {"variants_of": "B3", "conditions": "with tri27_human TRIM27, P14373", "values": [
      {"variant": "V340G", "effect of a mutation on the interaction": "with no effect"}
    ]},
    {"variants_of": "B4", "conditions": "with eya2_human EYA2, O00167", "values": [
      {"variant": "R87C", "effect of a mutation on the interaction": "with no effect"},
      {"variant": "N228T", "effect of a mutation on the interaction": "with no effect"},
      {"variant": "S63A", "effect of a mutation on the interaction": "with no effect"},
      {"variant": "G136S", "effect of a mutation on the interaction": "with no effect"},
      {"variant": "R208G", "effect of a mutation on the interaction": "with no effect"},
      {"variant": "D323N", "effect of a mutation on the interaction": "with no effect"}
    ]},
    {"variants_of": "B5", "conditions": "with cdn2c_human CDKN2C", "values": [
      {"variant": "A155T", "effect of a mutation on the interaction": "with no effect"}
    ]},
    {"variants_of": "B5", "conditions": "with psa1_human PSMA1, P25786", "values": [
      {"variant": "A155T", "effect of a mutation on the interaction": "with no effect"}
    ]}
  ]
}
